Assay results: patent US20240239878A1 (SHANGHAI QILU PHARMACEUTICAL RESEARCH AND DEVELOPMENT CENTRE, published 2024)

T1: Cynomolgus monkey DLL3 on HEK293 cells (HEK293-cyno DLL3) (Cynomolgus monkey, UniProt Q9NYJ7 27-618 (human entry))
T1 chain: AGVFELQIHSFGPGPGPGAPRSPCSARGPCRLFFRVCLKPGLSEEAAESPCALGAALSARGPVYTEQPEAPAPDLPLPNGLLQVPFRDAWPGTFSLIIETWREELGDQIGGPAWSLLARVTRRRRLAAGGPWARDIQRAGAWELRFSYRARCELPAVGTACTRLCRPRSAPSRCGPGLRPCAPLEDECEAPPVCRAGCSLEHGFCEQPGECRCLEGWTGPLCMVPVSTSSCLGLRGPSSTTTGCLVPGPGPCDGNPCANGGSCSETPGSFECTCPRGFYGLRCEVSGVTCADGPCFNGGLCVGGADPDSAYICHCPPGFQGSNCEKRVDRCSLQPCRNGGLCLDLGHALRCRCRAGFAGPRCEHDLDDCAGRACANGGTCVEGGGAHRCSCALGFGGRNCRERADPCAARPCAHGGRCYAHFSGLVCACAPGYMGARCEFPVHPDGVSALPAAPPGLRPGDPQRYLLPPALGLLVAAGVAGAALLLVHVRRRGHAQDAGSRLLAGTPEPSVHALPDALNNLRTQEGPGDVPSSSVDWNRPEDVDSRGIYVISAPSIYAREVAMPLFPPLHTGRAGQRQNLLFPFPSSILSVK

T2: human DLL3 on SHP-77 cells (human, UniProt Q9NYJ7 27-618)
T2 construct: also called DLL3-expressing cells (SHP-77)
T2 sequence: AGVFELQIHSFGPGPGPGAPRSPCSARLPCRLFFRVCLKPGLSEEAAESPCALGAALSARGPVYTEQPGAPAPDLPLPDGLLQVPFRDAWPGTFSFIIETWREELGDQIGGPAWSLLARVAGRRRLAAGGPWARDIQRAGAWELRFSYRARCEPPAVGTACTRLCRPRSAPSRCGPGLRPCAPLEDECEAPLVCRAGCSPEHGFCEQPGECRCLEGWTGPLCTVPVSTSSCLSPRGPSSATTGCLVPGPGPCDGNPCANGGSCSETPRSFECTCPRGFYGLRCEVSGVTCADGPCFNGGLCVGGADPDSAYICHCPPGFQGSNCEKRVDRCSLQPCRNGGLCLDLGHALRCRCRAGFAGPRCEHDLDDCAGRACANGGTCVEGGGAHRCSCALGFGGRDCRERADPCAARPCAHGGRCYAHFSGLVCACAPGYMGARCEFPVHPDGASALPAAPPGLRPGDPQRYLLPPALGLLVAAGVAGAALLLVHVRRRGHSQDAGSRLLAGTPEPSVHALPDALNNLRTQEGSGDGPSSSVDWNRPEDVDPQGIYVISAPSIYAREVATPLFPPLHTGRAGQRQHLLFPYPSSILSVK


How the values were obtained:
[1] = target: T3, human DLL4 (Sino Biological, Cat. No. 10171-H08H) (human, UniProt Q9NR61 27-529); assay: ELISA, plate coated with human DLL4 at 1 ug/mL, OD 450nm
T3 construct: also called family protein DLL4
T3 sequence (Q9NR61 27-529 limits assumed): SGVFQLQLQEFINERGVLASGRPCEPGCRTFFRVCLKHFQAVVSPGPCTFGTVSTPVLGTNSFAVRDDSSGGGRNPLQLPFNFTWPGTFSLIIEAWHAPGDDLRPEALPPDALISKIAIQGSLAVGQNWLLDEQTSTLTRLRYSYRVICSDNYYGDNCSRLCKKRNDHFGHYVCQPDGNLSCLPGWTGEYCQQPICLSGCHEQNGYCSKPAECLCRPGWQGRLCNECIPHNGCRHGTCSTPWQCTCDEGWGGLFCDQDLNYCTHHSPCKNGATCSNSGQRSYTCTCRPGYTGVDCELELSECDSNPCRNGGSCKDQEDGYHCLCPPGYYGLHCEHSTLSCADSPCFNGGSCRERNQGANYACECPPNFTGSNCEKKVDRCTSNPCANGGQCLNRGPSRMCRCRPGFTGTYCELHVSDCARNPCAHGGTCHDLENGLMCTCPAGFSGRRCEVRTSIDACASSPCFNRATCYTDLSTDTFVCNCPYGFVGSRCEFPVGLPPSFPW
Protocol: The antigen was washed three times with PBST, 300 μL/well. The antigen was blocked with 1% BSA (in PBST), 200 μL/well, and incubated at 37° C. for 1.5 hours.
Antibodies to be tested were diluted with 1% BSA (in PBS) at a starting concentration of 100 nM, downwards by a 10-fold gradient for 7 concentrations. The plates were washed three times with PBST, 300 μL/well. The diluted antibody was added to an ELISA plate at 100 μL/well and incubated at room temperature for 2 hours. The antibodies were washed three times with PBST, 300 μL/well. The secondary antibodies (goat anti-human IgG Fc for DLL4 (HRP), 1:20000 dilution: HRP goat anti-mouse IgG (H+L) for DLL1, 1:10000 dilution) were diluted with 1% BSA in PBST. The diluted secondary antibodies were added to the ELISA plate at 100 μL/well and incubated at room temperature for 1 hour. The plates were washed 6 times with PBST, 300 μL/well. The developing solution (TMA and TMB 1:1 mixed) was prepared. The developing solution was added to the plate, 100 μL/well, and incubated in the dark for 5 min. 50 μL of ELISA stop solution was added to the plate and shaken well.
OD450s were read on the envision and plotted on the GraphPad for EC₅₀ values.

[2] = target: T1, Cynomolgus monkey DLL3 on HEK293 cells …; assay: flow cytometry, HEK293-cyno DLL3 cells
Protocol: (§1) Monoclonal selection was performed, and the expression level of DLL3 protein in the monoclonal cells were identified by flow cytometry. The culture was expanded and stored in storage for later use. SHP-77 and HEK293-cyno DLL3 cells were cultured. The culture medium for SHP-77 cells were RPMI1640+10% FBS, and the culture medium for HEK293 cyno DLL3 cells were DMEM+10% FBS+200 μg/ml Hygromycin. The cells were cultured in a T75 cell culture flask at a 37° ° C. in a 5% CO₂ incubator. When using cells, they are washed with sterile DPBS, digested with 0.25% trypsin EDTA for about 5 minutes, and then stopped with a complete medium.
(§2) The digested cells were centrifuged at 1000 rpm for 5 min at room temperature. The supernatant was discarded and the cells were resuspended in 100 μL of 1% BSA (in PBS). The cells were counted and adjusted to a cell density of 1E6/m. The dilute cells were seeded in a 96-well round-bottom culture plate (corning 3799), and centrifuged at 1500 rpm for 5 min at 4° C. The supernatant was discarded and the cells were stored at 4° C. until use. Antibody samples to be tested were diluted with 1% BSA (in PBS) at a starting concentration of 100 nM, downwards by a 10-fold gradient for 7 concentrations. The cells were resuspended with the diluted antibody at 100 μL/well and incubated for 1 hour at 4° C. The cells were centrifuged at 1500 rpm for 5 minutes at 4° C. and the supernatant was discarded. The cells were resuspended and washed with 160 μL of 1% BSA (in PBS), centrifuged at 1500 rpm for 5 minutes at 4° C. The supernatant was discarded. The secondary antibody (goat anti human IgG Fc PE) was diluted 1:200 with 1% BSA (in PBS) according to the manufacturer's instructions and the cells were resuspended with the diluted secondary antibody. 100 μL/well, and incubated for 0.5 h at 4° C. The cells were centrifuged at 1500 rpm for 5 minutes at 4° C. and the supernatant was discarded. The cells were resuspended and washed with 160 μL of 1% BSA (in PBS), centrifuged at 1500 rpm for 5 minutes at 4° C. The supernatant was discarded. The cells were resuspended in 100 μL of 1% BSA (in PBS), and filtered across a 300 mesh gauze. The mean fluorescence intensity of the PE channels was measured by flow cytometry.

[3] = target: T2, human DLL3 on SHP-77 cells; assay: flow cytometry, SHP-77 cells
Protocol: as §1, §2

Binder | binding result [1] | EC50 [2] [nM] | Top MFI [2] [MFI] | EC50 [3] [nM] | Top MFI [3] [MFI]
hDLL3-3-1 camelid-derived humanized anti-DLL3 antibody (antibody, human IgG1, V domains shown) VH: EVQLVESGGGLVQPGGSLRLSCAASTYTISSGYMGWFRQAPGKEREGVAAIYIGGSTTLYADSVKGRFTISRDNSKNTLYLQMNSLRAEDTAVYYCAAQLRPNSAYHPLDGRKYNYWGQGTLVTVSS | no binding (tested: 100 nM) | – | – | – | –
DLL3-122 camelid-derived anti-DLL3 chimeric antibody (antibody, human IgG1, V domains shown) VH: QVQLVESGGGSVQAGGSLRLSCTASGDTYRSYCMGWFRKAPGKEREGVADIVSDGSTSYADSVKGRFTISKDNAKNTLYLQMNSLKPEDTAMYYCAVDRGGSGGYCYTGRYDYWGQGTQVTVSS | – | 0.415 | 460 | 0.427 | 846
DLL3-26 camelid-derived anti-DLL3 chimeric antibody (antibody, human IgG1, V domains shown) VH: QVQLVESGGGSVQAGGSLRLSCAASGDIYSSSYVGWFRQAPGKEREGVAIIYTSGDSTYYANSVKGRFTISQDKAKKTLYLQMNSLKPEDTAMYYCAARFAIDNSNYWGQGTQVTVSS | – | 0.439 | 450 | 0.519 | 821

Results, then the binder that gave them:

binding result [1] | EC50 [2] [nM] | Top MFI [2] [MFI] | EC50 [3] [nM] | Top MFI [3] [MFI] | Binder
no binding (tested: 100 nM) | – | – | – | – | hDLL3-3-2 camelid-derived humanized anti-DLL3 antibody (antibody, V domains shown) VH: EVQLVESGGGLVQPGGSLRLSCKSPTYTISSGYMGWFRQAPGKEREGVAAIYIGGSTTLYADSVKGRFTISRDNSKNTLYLQMNSLRAEDTAVYYCAAQLRPNSAYHPLDGRKYNYWGQGTLVTVSS
no binding (tested: 100 nM) | – | – | – | – | hDLL3-122 camelid-derived humanized anti-DLL3 antibody (antibody, V domains shown) VH: EVQLVESGGGLVQPGGSLRLSCAASGDTYRSYCMGWFRQAPGKEREGVADIVSDGSTSYADSVKGRFTISRDNSKNTLYLQMNSLRAEDTAVYYCAVDRGGSGGYCYTGRYDYWGQGTLVTVSS
no binding (tested: 100 nM) | – | – | – | – | hDLL3-26 camelid-derived humanized anti-DLL3 antibody (antibody, V domains shown) VH: EVQLVESGGGLVQPGGSLRLSCAASGDIYSSSYVGWFRQAPGKEREGVAIIYTSGDSTYYADSVKGRFTISRDNSKNTLYLQMNSLRAEDTAVYYCAARFAIDNSNYWGQGTLVTVSS
– | 0.025 | 438 | 0.047 | 874 | DLL3-3 camelid-derived anti-DLL3 chimeric antibody (antibody, human IgG1, V domains shown) VH: DVQLVESGGGSVQAGGSLKLSCKSPTYTISSGYMGWFRQAPGKEREGVAAIYIGGSTTLYADSVKGRFTISADNAEKTVYLQMNTLKPEDSAMYYCAAQLRPNSAYHPLDGRKYNYWGQGTQVTVSS
